Data: publication PMC11542851 (PLOS Pathogens, 2024)
Changes are numbered by the printed parent chain. Read-outs that look alike come from different tables or passages of the source.

B1: C68.61 (antibody, V domains shown)
VH: EVQLVQSGAEVKKPGESLKISCKGSAYIFTRYWIGWVRQMPGKGLEWMGIIYPGDSDTRYSPSFQGQVTISADKSISTAYLQWSSLKASDTAMYYCARSGTTNYFDYWGQGTLVTVSS
VL: DIQLTQSPSTLSASVGDRVTITCRASQSISSWLAWYQQKPGKAPKLLIYDASSLDSGVPSRFSGSGSGTDFTLTISSLQPDDFATYYCQQFNSYWTFGQGTKVEIK
B2: C68.200 (antibody, V domains shown)
VH: EVQLLESGGGLVQPGGSLRLSCTASGFTFSRYALTWVRQAPGKGLEWVSAISGSGGNTNYADSVKGRFTISRDNSKNTLYLQMNSLRAEDTAVYYCAKSPRYNNDYFDFWGQGTLVTVSS
VL: B1 VL with D55E, D70E, F91Y, S93T, Y94F, W95I, Q99H, K102R, V103L
B3: C68.203 (antibody, V domains shown)
VH: B2 VH with W47C, I51F, G56D, N57S, N59Y, N104S
VL: B1 VL with D55E, D70E, F91Y, Y94F, W95I, K102R, V103L
B4: C68.348 (antibody, V domains shown)
VH: QVQLQESGPRLVKSSGTLSLTCAVSGGSISSSKWWSWVRQPPGKGLEWIGEVYHGGSTNYNPSLKSRVTISVDKAKNQFSLKLSSVTAADSAVYYCASLDSAAVFDYWGQGTLVTVSS
VL: QSALTQPASVSGSPGQSITISCTGTSSDVGRFNYVSWYQQHPGKAPKLLIYDVSNRPSGVSNRFSGSKSGNTASLTISGLQAEDEADYYCNSYTSSSTLYVFGTGTKVTVL
B5: C68.327 (antibody, V domains shown)
VH: EVQLLESGGGLVQPGGSLRLSCAASGFTFGSYAMSWVRQAPGKGLEWVSAISGSGGSTYYADSVKGRFTISRDNSKNTLYLQMNSLRAEDTAVYNCAKDLWDGFHWFDSWGQGTLVTVSS
VL: DIQMTQSPSSVSASVGDRVTITCRASQGISSWLAWYQQKPGKAPNLLIYSASSLQSGVPSRFSGSGSGTDFTLTISSLQPEDFATYYCQQANSFPITFGQGTRLEIK
B6: C68.183 (antibody, V domains shown)
VH: EVQLLESGGGLVQPGGSLRLSCVASGFTFRNFAMSWVRQAPGKGLEWVSAISGSGDSTYYADSVKGRFTISRDNSKNTLYLQVNSLRVEDTAIYYCAKGSRGSTDYFDSWGQGTLVTVSS
VL: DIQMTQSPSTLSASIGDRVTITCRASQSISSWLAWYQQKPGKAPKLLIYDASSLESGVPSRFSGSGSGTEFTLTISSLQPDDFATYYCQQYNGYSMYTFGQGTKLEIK
B7: C68.185 (antibody, V domains shown)
VH: QVQLVQSGAEVKKPGASVKVSCKTSGYAFTDHYVHWVRQAPGQGLEWMGVINPSGVGTSYAQMFQDRVTLTSDTSTSTVYMVLSSLRSEDTAVYYCVRDDYGVPARGWFDPWGQGTLVTVSS
VL: EVVLTQSPATLSLSPGERATLSCRASQSISSYLAWYQQKPGQAPRLLIYDASNRATGVPARFSGSGSGADFTLTISSLEAEDFALYYCQHRSNWLYTFGQGTKLEIK
B8: C68.239 (antibody, V domains shown)
VH: EVQLLESGGGLVQPGGSLRLSCAASGFTFSSYAMSWVRQAPGKGLEWVSAISGGGDNTYYADSVKGRFTISRDNSKNTLYLQMNSLRAEDTAVYFCAKNPITVVPAAWDRGYFDLWGRGTLVTVSS
VL: SYELTQPPSVSVAPRKTARITCGGNNIGSYSVHWYQQRPGQAPVLVVHDDSDRPSGIPERFSGSNSGNTATLTISRVEAGDEADYYCQVWDSSSDHRGVFGGGTKLTVL
B9: C68.201 (antibody, V domains shown)
VH: EVQLVQSGAEVKKPGESLKISCTGSGYSFAYYWIGWVRQMPGKGLEWMGNIYPGDSDTRYSPSFQGQITISSDKSISTAYLQWSSLKASDTAMYYCATRYSGTHYVGIDAFEIWGQGTMVTVSS
VL: not shown
B10: C68.88 (antibody, V domains shown)
VH: QVQLQESGPGLVKPSETLSLTCSVSGGPISSSRYYWGWIRQSPGEGLEWIGTIYYSGSTYYNPSFKSRVTISVDTSKNQFSLKLSSVTAADTAVYYCATRCYDFWSGYYNREMLWFDCWGQGTLVTVSS
VL: NFMLTQPHSVSESPGKTVTISCTRSSGSIASNYVQWYQQRPGSSPTTVIYENNQTPSGVPDRFSGSIDSSSNSASLTISGLKTEDEADYYCQSYDSSVVVFGGGTKLTVL

What was measured:
[1] = biological target: RsSHC014 RBD, yeast-displayed (Bat SARS-like coronavirus RsSHC014, UniProt U5WLK5); experiment: flow cytometry on cells; settings: one partner purified
[2] = biological target: T1, SARS-CoV-2 RBD subunit (recombinant) (SARS-CoV-2 Wuhan-Hu-1, UniProt P0DTC2); experiment: ELISA; settings: both partners purified
T1 construct: source: bought: Sino Biologics

[3] = biological target: SARS-CoV-1 RBD, yeast-displayed (SARS-CoV-1, strain  (P59594 …, UniProt P59594)); experiment: flow cytometry on cells; settings: one partner purified
[4] = biological target: T1, SARS-CoV-2 RBD subunit (recombinant)
[5] = biological target: SARS-CoV-2 Omicron XBB recombinant spike protein (trimer) (SARS-CoV-2 Omicron XBB (entry: XBB.1), strain)

Row | Binder | binding result [1] | binding result [2] | other results
1 | B1 | binds |  | 
2 | B2 |  | binds | 
3 | B3 |  | binds | 
4 | B4 |  | binds | 
5 | B5 |  | binds | 
6 | B6 | binds | binds | 
7 | B7 |  | binds | binding result [3]: binds; fold lower binding than to SARS-CoV-1 RBD [1]: ~10 fold
8 | B8 | binds | binds | 
9 | B9 |  |  | binding result [4]: binds; binding result [5]: binds
10 | B10 | binds | binds | 
